From article PMC6019379, “RecA-like domain 2 of DNA-dependent ATPase A domain, a SWI2/SNF2 protein, mediates conformational integrity and ATP hydrolysis” (Bioscience Reports, 2018)
Positions count from the first letter of the chain named.

Legend:
Assay in all cases: intrinsic tryptophan fluorescence titration; no ATP; Fluorescence titration (ex 295 nm, em 340 nm), one-site saturation fit; buffer, salt, pH and temperature not given in the material. Wild-type ADAAD Kd values are cited from ref 24 and not listed
Settings in all cases: protein: recombinant; tags: His (Ni-NTA, pET-14b); hairpin
ADAAD F507A/R592A = molecular target: T1, ADAAD F507A/R592A (Bos taurus (bovine), UniProt Q9TTA5 221-940, F727A;R812A)
T1 sequence: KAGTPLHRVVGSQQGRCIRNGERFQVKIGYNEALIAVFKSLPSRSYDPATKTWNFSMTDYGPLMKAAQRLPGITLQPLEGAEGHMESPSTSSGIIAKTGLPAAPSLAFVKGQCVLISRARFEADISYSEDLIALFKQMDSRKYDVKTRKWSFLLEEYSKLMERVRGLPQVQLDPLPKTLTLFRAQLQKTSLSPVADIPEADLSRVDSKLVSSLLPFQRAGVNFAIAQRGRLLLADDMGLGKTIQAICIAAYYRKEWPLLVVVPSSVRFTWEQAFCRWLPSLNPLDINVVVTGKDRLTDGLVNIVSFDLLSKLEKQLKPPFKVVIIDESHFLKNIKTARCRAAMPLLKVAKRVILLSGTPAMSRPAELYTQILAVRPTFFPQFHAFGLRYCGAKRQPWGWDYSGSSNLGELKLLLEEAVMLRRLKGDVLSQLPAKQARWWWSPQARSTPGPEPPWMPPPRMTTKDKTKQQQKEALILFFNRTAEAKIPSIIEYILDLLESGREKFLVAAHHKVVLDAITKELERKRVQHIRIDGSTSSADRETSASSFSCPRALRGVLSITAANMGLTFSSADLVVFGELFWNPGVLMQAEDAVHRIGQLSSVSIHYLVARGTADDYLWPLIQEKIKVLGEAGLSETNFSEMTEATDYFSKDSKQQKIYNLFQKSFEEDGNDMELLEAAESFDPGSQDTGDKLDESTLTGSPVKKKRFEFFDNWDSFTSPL

ADAAD R595K = molecular target: T2, ADAAD R595K (Bos taurus (bovine), UniProt Q9TTA5 221-940, R815K)
T2 sequence: T1 sequence with A507F, A592R, R595K

ADAAD D591H = molecular target: T3, ADAAD D591H (Bos taurus (bovine), UniProt Q9TTA5 221-940, D811H)
T3 sequence: T1 sequence with A507F, D591H, A592R

B1: slDNA (stem-loop DNA) (structured_DNA)
DNA: GCGCAATTGCGCTCGACGATTTTTTAGCGCAATTGCGC
Kd (ADAAD F507A/R592A): 27.8 ± 3.6 nM
Kd (ADAAD R595K): 25.1 ± 7.4 nM
Kd (ADAAD D591H): 21.3 ± 7 nM
